Test results taken from IntAct's records for PubMed 20890305.

B1: Mitogen-activated protein kinase kinase kinase 11 (Homo sapiens), Q16584 (parent)
chain: MEPLKSLFLKSPLGSWNGSGSGGGGGGGGGRPEGSPKAAGYANPVWTALFDYEPSGQDELALRKGDRVEVLSRDAAISGDEGWWAGQVGGQVGIFPSNYVSRGGGPPPCEVASFQELRLEEVIGIGGFGKVYRGSWRGELVAVKAARQDPDEDISVTAESVRQEARLFAMLAHPNIIALKAVCLEEPNLCLVMEYAAGGPLSRALAGRRVPPHVLVNWAVQIARGMHYLHCEALVPVIHRDLKSNNILLLQPIESDDMEHKTLKITDFGLAREWHKTTQMSAAGTYAWMAPEVIKASTFSKGSDVWSFGVLLWELLTGEVPYRGIDCLAVAYGVAVNKLTLPIPSTCPEPFAQLMADCWAQDPHRRPDFASILQQLEALEAQVLREMPRDSFHSMQEGWKREIQGLFDELRAKEKELLSREEELTRAAREQRSQAEQLRRREHLLAQWELEVFERELTLLLQQVDRERPHVRRRRGTFKRSKLRARDGGERISMPLDFKHRITVQASPGLDRRRNVFEVGPGDSPTFPRFRAIQLEPAEPGQAWGRQSPRRLEDSSNGERRACWAWGPSSPKPGEAQNGRRRSRMDEATWYLDSDDSSPLGSPSTPPALNGNPPRPSLEPEEPKRPVPAERGSSSGTPKLIQRALLRGTALLASLGLGRDLQPPGGPGRERGESPTTPPTPTPAPCPTEPPPSPLICFSLKTPDSPPTPAPLLLDLGIPVGQRSAKSPRREEEPRGGTVSPPPGTSRSAPGTPGTPRSPPLGLISRPRPSPLRSRIDPWSFVSAGPRPSPLPSPQPAPRRAPWTLFPDSDPFWDSPPANPFQGGPQDCRAQTKDMGAQAPWVPEAGP
B2: Merlin (Homo sapiens), P35240 (parent)
chain: MAGAIASRMSFSSLKRKQPKTFTVRIVTMDAEMEFNCEMKWKGKDLFDLVCRTLGLRETWFFGLQYTIKDTVAWLKMDKKVLDHDVSKEEPVTFHFLAKFYPENAEEELVQEITQHLFFLQVKKQILDEKIYCPPEASVLLASYAVQAKYGDYDPSVHKRGFLAQEELLPKRVINLYQMTPEMWEERITAWYAEHRGRARDEAEMEYLKIAQDLEMYGVNYFAIRNKKGTELLLGVDALGLHIYDPENRLTPKISFPWNEIRNISYSDKEFTIKPLDKKIDVFKFNSSKLRVNKLILQLCIGNHDLFMRRRKADSLEVQQMKAQAREEKARKQMERQRLAREKQMREEAERTRDELERRLLQMKEEATMANEALMRSEETADLLAEKAQITEEEAKLLAQKAAEAEQEMQRIKATAIRTEEEKRLMEQKVLEAEVLALKMAEESERRAKEADQLKQDLQEAREAERRAKQKLLEIATKPTYPPMNPIPAPLPPDIPSFNLIGDSLSFDFKDTDMKRLSMEIEKEKVEYMEKSKHLQEQLNELKTEIEALKLKERETALDILHNENSDRGGSSKHNTIKKLTLQSAKSRVAFFEEL

Variants of: B1
Settings: with merl_human NF2, P35240

effect of a mutation on the interaction	Variant
disrupting interaction	K144R

Variants of: B2
Settings: with MAP3K11, Q16584

effect of a mutation on the interaction	Variant
decreasing interaction	S518D
